T1: Sus1 (S. cerevisiae, UniProt Q6WNK7 1-96)
T1 construct: Sus1, S. cerevisiae; also called Sus1A; Sus1B; source: E. coli BL21 (DE3) CodonPlus RIL; in clarified lysate (assembly pull-down), purified within Sac3 complexes (crystals)
T1 sequence: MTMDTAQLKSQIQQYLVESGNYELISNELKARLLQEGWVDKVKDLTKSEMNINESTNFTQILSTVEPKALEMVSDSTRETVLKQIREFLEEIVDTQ

T2: Cdc31 (S. cerevisiae, UniProt P06704 1-161)
T2 construct: Cdc31, S. cerevisiae; source: E. coli BL21 (DE3) CodonPlus RIL, co-expressed with Sac3 fragments; in clarified lysate (assembly pull-down), purified within Sac3 complexes (crystals)
T2 sequence: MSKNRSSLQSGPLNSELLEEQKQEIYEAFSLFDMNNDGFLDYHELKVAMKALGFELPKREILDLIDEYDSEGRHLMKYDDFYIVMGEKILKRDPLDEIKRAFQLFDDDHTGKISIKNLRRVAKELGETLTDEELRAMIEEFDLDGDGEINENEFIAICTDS

T3: Sac3^753–805:Sus1B:Cdc31 complex (S. cerevisiae, UniProt P46674 753-805; Q6WNK7 1-96; P06704 1-161)
T3 construct: Sac3, S. cerevisiae, residues 753–805 (BC); Sus1, S. cerevisiae (the Sus1B chain); Cdc31, S. cerevisiae; also called BC sub-complex; source: E. coli BL21 (DE3) CodonPlus RIL; cells with co-expressed Sac3:Cdc31 mixed with cells with Sus1; copies: 1 + 1 + 1
T3 sequence 1: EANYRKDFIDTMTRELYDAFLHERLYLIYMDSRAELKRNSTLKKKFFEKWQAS
T3 sequence 2: T1 sequence
T3 sequence 3: T2 sequence

T4: Kap95 (yeast, UniProt Q06142 1-861)
T4 construct: Kap95 (protein import karyopherin), yeast; also called karyopherin Kap95; yeast Kap95
T4 sequence (looked up): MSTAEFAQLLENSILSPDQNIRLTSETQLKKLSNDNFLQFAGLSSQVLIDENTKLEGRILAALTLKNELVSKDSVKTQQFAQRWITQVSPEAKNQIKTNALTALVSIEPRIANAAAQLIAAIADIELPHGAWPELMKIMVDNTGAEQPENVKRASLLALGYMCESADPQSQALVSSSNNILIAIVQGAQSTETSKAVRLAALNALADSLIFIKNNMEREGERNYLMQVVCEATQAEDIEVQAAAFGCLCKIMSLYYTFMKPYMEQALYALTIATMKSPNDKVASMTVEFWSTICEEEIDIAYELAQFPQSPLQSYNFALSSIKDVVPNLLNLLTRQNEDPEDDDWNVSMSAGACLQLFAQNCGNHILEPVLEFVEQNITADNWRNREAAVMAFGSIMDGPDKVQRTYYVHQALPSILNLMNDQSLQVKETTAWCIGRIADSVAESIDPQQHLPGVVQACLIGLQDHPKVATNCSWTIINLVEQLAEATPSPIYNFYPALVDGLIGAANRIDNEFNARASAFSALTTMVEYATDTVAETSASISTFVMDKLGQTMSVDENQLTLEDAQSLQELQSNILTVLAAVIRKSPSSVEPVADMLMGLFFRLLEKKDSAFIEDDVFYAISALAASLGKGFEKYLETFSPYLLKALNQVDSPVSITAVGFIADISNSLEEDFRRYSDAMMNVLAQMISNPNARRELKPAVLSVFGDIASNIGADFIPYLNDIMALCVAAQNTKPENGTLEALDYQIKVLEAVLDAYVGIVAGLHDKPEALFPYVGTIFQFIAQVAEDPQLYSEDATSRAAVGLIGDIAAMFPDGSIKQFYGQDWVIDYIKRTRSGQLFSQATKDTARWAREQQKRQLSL

B1: Sac3^757–787 (domain or fragment, S. cerevisiae, UniProt P46674 757-787, looked up)
chain: RKDFIDTMTRELYDAFLHERLYLIYMDSRAE
notes: source: E. coli BL21 (DE3) CodonPlus RIL, purified in complex with Sus1B
B2: Sac3^757–787:Sus1B (complex, S. cerevisiae)
chain 1: B1 chain
chain 2: T1 sequence
notes: Sus1, S. cerevisiae (the Sus1B chain); also called B sub-complex; Sac3:Sus1B; copies: 1 + 1
B3: Sac3^753–805 (domain or fragment, S. cerevisiae, UniProt P46674 753-805, looked up)
chain: T3 sequence 1
notes: Sac3, S. cerevisiae, residues 753–805 (BC); also called BC fragment; source: E. coli BL21 (DE3) CodonPlus RIL, purified in complex with Sus1B and Cdc31
B4: Nup1^316–340 (domain or fragment, S. cerevisiae, UniProt P20676 316-340, looked up)
chain: LKKNIEPKKDKESIVLPTVGFDFIK
notes: Nup1, S. cerevisiae, residues 316–340; Residues 330–340 were built in the model; also called Nup1 fragment; source: E. coli BL21 (DE3) CodonPlus RIL, purified (Glutathione Sepharose, TEV release, Superdex75); not shown: GST, N-terminal, cleaved
B5: GST-Nup1^191–385 (domain or fragment, S. cerevisiae, UniProt P20676 191-385, looked up)
chain: KNRSNRKRFHSQSKGTVWSANFEYDLSEYDAIQKKDNKDKEGNAGGDQKTSENRNNIKSSISNGNLATGPNLTSEIEDLRADINSNRLSNPQKNLLLKGPASTVAKTAPIQESFVPNSERSGTPTLKKNIEPKKDKESIVLPTVGFDFIKDNETPSKKTSPKATSSAGAVFKSSVEMGKTDKSTKTAEAPTLSFN
notes: source: E. coli BL21 (DE3) CodonPlus RIL; immobilised on Glutathione Sepharose 4B from clarified lysate; not shown: GST, N-terminal, kept
B6: Nup1^322–355 (domain or fragment, S. cerevisiae, UniProt P20676 322-355, looked up)
chain: PKKDKESIVLPTVGFDFIKDNETPSKKTSPKATS
notes: Residues 326–340 were built in the model; also called Nup1 fragment; source: E. coli BL21 (DE3) CodonPlus RIL, purified (Glutathione Sepharose, TEV release, Superdex75); not shown: GST, N-terminal, cleaved
B7: GST-Nup1^371–500 (domain or fragment, S. cerevisiae, UniProt P20676 371-500, looked up)
chain: DKSTKTAEAPTLSFNFSQKANKTKAVDNTVPSTTLFNFGGKSDTVTSASQPFKFGKTSEKSENHTESDAPPKSTAPIFSFGKQEENGDEGDDENEPKRKRRLPVSEDTNTKPLFDFGKTGDQKETKKGES
notes: as for B5

What all share (settings): both partners purified
Assay [1] concerns the target T1, Sus1. Put plainly: crystal structure; Nup1^322–355 mixed 6:1 with Sac3^757–787:Sus1B (15 mg/ml); 2.2–2.35 M ammonium sulphate, 100 mM Na citrate pH 5.6; P3_(2)21, 3.0 Å.
The target in the assay “GST-Nup1^191–385” is B5. Description: pull-down; GST-Nup fusion (or GST) immobilised on Glutathione Sepharose 4B from clarified bacterial lysate and washed with PBS-DTT; purified Sac3^CID complex, sub-complex, mutant variant or Kap95 added at 15.4 μM; 4°C, 1 h; SDS-PAGE and Coomassie staining.
Assay [2] deals with T1, Sus1. Put plainly: crystal structure; Nup1^316–340 mixed 7:1 with Sac3^753–805:Sus1B:Cdc31 (14.6 mg/ml); 16% PEG600, 2% PEG 1K, 10% glycerol, 100 mM MES pH 6.0; P2_(1), 2.6 Å.
In another assay the target is T2, Cdc31. Described as above.
For assay [3], the target named is T3, Sac3^753–805:Sus1B:Cdc31 complex. The description is as above.
Assay [4] shares this target. Description: pull-down; GST-Nup fusion (or GST) immobilised on Glutathione Sepharose 4B from clarified bacterial lysate and washed with PBS-DTT; purified Sac3^CID complex, sub-complex, mutant variant or Kap95 added at 15.4 μM; 4°C, 1 h; SDS-PAGE and Coomassie staining.
In the assay “Sac3^757–787” the target is B1. Description: crystal structure; Nup1^322–355 mixed 6:1 with Sac3^757–787:Sus1B (15 mg/ml); 2.2–2.35 M ammonium sulphate, 100 mM Na citrate pH 5.6; P3_(2)21, 3.0 Å.
The target in the assay “Sac3^757–787:Sus1B” is B2. The description is as above.
Another assay addresses T4, Kap95. Put plainly: pull-down; GST-Nup fusion (or GST) immobilised on Glutathione Sepharose 4B from clarified bacterial lysate and washed with PBS-DTT; purified Sac3^CID complex, sub-complex, mutant variant or Kap95 added at 15.4 μM; 4°C, 1 h; SDS-PAGE and Coomassie staining.

B1: the binding result with Sus1 [1] is recorded as “binds”.

Regarding B2, the binding result in the assay with GST-Nup1^191–385 is reported as “binds”.

With B3, the binding result in the assay with Sus1 [2] and with Cdc31 was “binds” each time.

As for B4, the binding result in [3] is reported as “binds”.

As to B5, in assay [4], the binding result is “binds”.

As to B6, the binding result with Sac3^757–787, with Sus1 [1] and with Sac3^757–787:Sus1B was “binds” in each case.

As to B7, in the assay with Kap95, the binding result was “binds”.

Source of the values: publication PMC4041426, “Structural basis for binding the TREX2 complex to nuclear pores, GAL1 localisation and mRNA export” (Nucleic Acids Research, 2014).
